Data reported in patent publication US20100196266A1.

Legend:
[1] = molecular target: antigen recognised by L243 on canine lymphocytes and canine lymphoma cells (HLA-DR of the dog) (dog); test: flow cytometry, dog lymphoma aspirate; none 3.24
[2] = molecular target: antigen recognised by L243 on canine lymphocytes and canine lymphoma cells (HLA-DR of the dog) (dog); test: flow cytometry, dog lymphoma aspirate; none 4.48
[3] = molecular target: antigen recognised by L243 on canine lymphocytes and canine lymphoma cells (HLA-DR of the dog) (dog); test: flow cytometry, canine lymphoma aspirate 150836; none 3.2
[4] = molecular target: antigen recognised by L243 on canine lymphocytes and canine lymphoma cells (HLA-DR of the dog) (dog); test: flow cytometry, canine lymphoma aspirate 150836; none 4.5
[5] = molecular target: human leukocyte antigen-DR (HLA-DR) on human lymphoma and leukemia cell lines and human lymphocytes (human); test: indirect FACS, FITC-GAH Fc, Namalwa cells; none 2.5; control antibody
[6] = molecular target: human leukocyte antigen-DR (HLA-DR) on human lymphoma and leukemia cell lines and human lymphocytes (human); test: indirect flow cytometry, FITC-GAH Fc, SU-DHL-6 cells; none 4.6; negative control
[7] = molecular target: antigen recognised by L243 on canine lymphocytes and canine lymphoma cells (HLA-DR of the dog) (dog); test: flow cytometry, dog lymphoma aspirate; none 4.48; control antibody
[8] = molecular target: human leukocyte antigen-DR (HLA-DR) on human lymphoma and leukemia cell lines and human lymphocytes (human); test: indirect flow cytometry, FITC-GAH Fc, WSU-FSCCL cells; none 2.7; negative control
[9] = molecular target: antigen recognised by L243 on canine lymphocytes and canine lymphoma cells (HLA-DR of the dog) (dog); test: flow cytometry, canine lymphoma aspirate 150836; none 4.5; control antibody
[10] = molecular target: human leukocyte antigen-DR (HLA-DR) on human lymphoma and leukemia cell lines and human lymphocytes (human); test: indirect flow cytometry, FITC-GAH Fc, Namalwa cells; none 2.6; negative control
[11] = molecular target: human leukocyte antigen-DR (HLA-DR) on human lymphoma and leukemia cell lines and human lymphocytes (human); test: indirect FACS, FITC-GAH Fc, SU-DHL-6 cells; none 4.6; control antibody
[12] = molecular target: human leukocyte antigen-DR (HLA-DR) on human lymphoma and leukemia cell lines and human lymphocytes (human); test: indirect FACS, FITC-GAH Fc, Raji cells; none 6.8; control antibody
[13] = molecular target: human leukocyte antigen-DR (HLA-DR) on human lymphoma and leukemia cell lines and human lymphocytes (human); test: indirect FACS, FITC-GAH Fc, Daudi cells; none 3.1; control antibody
[14] = molecular target: human leukocyte antigen-DR (HLA-DR) on human lymphoma and leukemia cell lines and human lymphocytes (human); test: indirect FACS, FITC-GAH Fc, WSU-FSCCL cells; none 2.6; control antibody
[15] = molecular target: human leukocyte antigen-DR (HLA-DR) on human lymphoma and leukemia cell lines and human lymphocytes (human); test: indirect flow cytometry, FITC-GAH Fc, Ramos cells; none 3.1; negative control
[16] = molecular target: human leukocyte antigen-DR (HLA-DR) on human lymphoma and leukemia cell lines and human lymphocytes (human); test: indirect flow cytometry, FITC-GAH Fc, Daudi cells; none 3.2; negative control
[17] = molecular target: human leukocyte antigen-DR (HLA-DR) on human lymphoma and leukemia cell lines and human lymphocytes (human); test: indirect flow cytometry, FITC-GAH Fc, RL cells; none 2.4; negative control
[18] = molecular target: human leukocyte antigen-DR (HLA-DR) on human lymphoma and leukemia cell lines and human lymphocytes (human); test: indirect flow cytometry, Namalwa cells, FITC-GAH; none 2.52; control antibody
[19] = molecular target: antigen recognised by L243 on canine lymphocytes and canine lymphoma cells (HLA-DR of the dog) (dog); test: flow cytometry, canine lymphoma aspirate 150836; none 3.2; control antibody
[20] = molecular target: antigen recognised by L243 on canine lymphocytes and canine lymphoma cells (HLA-DR of the dog) (dog); test: flow cytometry, dog lymphoma aspirate; none 3.24; control antibody
[21] = molecular target: human leukocyte antigen-DR (HLA-DR) on human lymphoma and leukemia cell lines and human lymphocytes (human); test: indirect FACS, FITC-GAH Fc, Ramos cells; none 3.1; control antibody
[22] = molecular target: human leukocyte antigen-DR (HLA-DR) on human lymphoma and leukemia cell lines and human lymphocytes (human); test: indirect flow cytometry, FITC-GAH Fc, Raji cells; none 6.9; negative control
[23] = molecular target: antigen recognised by L243 on canine lymphocytes and canine lymphoma cells (HLA-DR of the dog) (dog); test: flow cytometry, dog lymphoma aspirate; none 3.37
[24] = molecular target: antigen recognised by L243 on canine lymphocytes and canine lymphoma cells (HLA-DR of the dog) (dog); test: flow cytometry, canine lymphoma aspirate 150836; none 3.4
[25] = molecular target: antigen recognised by L243 on canine lymphocytes and canine lymphoma cells (HLA-DR of the dog) (dog); test: flow cytometry, dog lymphoma aspirate; none 3.85
[26] = molecular target: antigen recognised by L243 on canine lymphocytes and canine lymphoma cells (HLA-DR of the dog) (dog); test: flow cytometry, canine lymphoma aspirate 150836; none 3.9
[27] = molecular target: human leukocyte antigen-DR (HLA-DR) on human lymphoma and leukemia cell lines and human lymphocytes (human); test: indirect flow cytometry, Namalwa cells, FITC-GAM; none 2.91; control antibody

B1: hL243γ4P (humanized L243, IgG4/K isotype with hinge mutation Ser241Pro) (antibody, V domains shown)
VH: QVQLQQSGSELKKPGASVKVSCKASGFTFTNYGMNWVKQAPGQGLKWMGWINTYTREPTYADDFKGRFAFSLDTSVSTAYLQISSLKADDTAVYFCARDITAVVPTGFDYWGQGSLVTVSS
VL: DIQLTQSPSSLSASVGDRVTITCRASENIYSNLAWYRQKPGKAPKLLVFAASNLADGVPSRFSGSGSGTDYTFTISSLQPEDIATYYCQHFWTTPWAFGGGTKLQIKR
- mean FL [1]: 5.47
- % Positive [2]: 26.3%
- mean FL [3]: 5.5
- % Positive [4]: 26.2%

B2: hMN-14, labetuzumab (humanized anti-carcinoembryonic antigen IgG1) (antibody, INN chains, looked up, V domains shown)
VH: EVQLVESGGGVVQPGRSLRLSCSASGFDFTTYWMSWVRQAPGKGLEWIGEIHPDSSTINYAPSLKDRFTISRDNAKNTLFLQMDSLRPEDTGVYFCASLYFGFPWFAYWGQGTPVTVSS
VL: DIQLTQSPSSLSASVGDRVTITCKASQDVGTSVAWYQQKPGKAPKLLIYWTSTRHTGVPSRFSGSGSGTDFTFTISSLQPEDIATYYCQQYSLYRSFGQGTKVEIKR
- Geometric Mean Fluorescence [5]: 2.36
- Geometric Mean Fluorescence [6]: 4.9
- % Positive [7]: 4.63%
- Geometric Mean Fluorescence [8]: 2.7
- % Positive [9]: 4.6%
- Geometric Mean Fluorescence [10]: 2.4
- Geometric Mean Fluorescence [11]: 4.94
- Geometric Mean Fluorescence [12]: 6.96
- Geometric Mean Fluorescence [13]: 3.16
- Geometric Mean Fluorescence [14]: 2.66
- Geometric Mean Fluorescence [15]: 3.1
- Geometric Mean Fluorescence [16]: 3.2
- Geometric Mean Fluorescence [17]: 2.8
- GEO MEAN Fluorescence [18]: 2.49
- mean FL [19]: 3.2
- mean FL [20]: 3.24
- Geometric Mean Fluorescence [21]: 3.13
- Geometric Mean Fluorescence [22]: 7

B3: murine monoclonal antibody L243 (mL243) (antibody, V domains shown)
VH: QIQLVQSGPELKKPGETVKISCKASGFTFTNYGMNWVKQAPGKGLKWMGWINTYTREPTYADDFKGRFAFSLETSASTAYLQINNLKNEDTAKYFCARDITAVVPTGFDYWGQGTTLTVSS
VL: DIQMTQSPASLSVSVGETVTITCRASENIYSNLAWYRQKQGKSPQLLVFAASNLADGVPSRFSGSGSGTQYSLKINSLQSEDFGDYYCQHFWTTPWAFGGGTNLEIKR
- mean FL [23]: 10.4
- mean FL [24]: 10.4
- % Positive [25]: 77.8%
- % Positive [26]: 77.8%

B4: murine MN-14 (anti-carcinoembryonic antigen) (antibody, from a related filing, V domains shown)
VH: EVKLLESGGGLVQSGGSLKLSCAASGFDFTTYWMSWVRQAPGKGLEWIGEIHPDSSTINYAPSLKDKFIVSRDNAKNTLYLQMSKVRSEDTALYYCASLYFGFPWFAYWGQGTPVTVSA
VL: EIQLTQSHKMMSTSVGDRVSITCKASQDVGTSVAWYQQRPGQSPKLLIYWTSTRHTGVPDRFTGSVSGTDFTLTITNVQSEDLADYFCQQYSLYRSFGGGTKLEIK
- GEO MEAN Fluorescence [27]: 3.32
